Data set [1] can be described thus: Determination of LogD7.4 values. To be noted: shake-flask octanol/PBS pH 7.4; 3 µL of 1 mM solution, 300 µL per phase, vortex 1 min, centrifuged 5 min 10,000 x g; HPLC peak area octanol/buffer, both phases analysed. The class given is physicochemical. On the procedure: Compounds (3 µL of a 1 mM solution) were diluted into 300 µL PBS pH 7.4 or octanol and mixed. 300 µL of the other phase was added, followed by vigorous mixing using a vortex shaker for one minute. The two phases were centrifuged (5 min, 10,000 x g). Following separation, 25 µL aliquots were removed for HPLC analysis. LogD7.4 was calculated by taking the logarithm of the ratio of the high-performance liquid chromatography (HPLC) peak area of each compound in octanol to the corresponding peak area in buffer. Consequently, logD7.4 values were based on analysis of both aqueous and octanol fractions.

Data set [2] deals with T1, huCMKLR1 (Homo sapiens, UniProt Q99788).
T1 construct: expressed in transfected cells; host or cells: HEK293a (membrane preparations)
T1 sequence (Q99788 1-373): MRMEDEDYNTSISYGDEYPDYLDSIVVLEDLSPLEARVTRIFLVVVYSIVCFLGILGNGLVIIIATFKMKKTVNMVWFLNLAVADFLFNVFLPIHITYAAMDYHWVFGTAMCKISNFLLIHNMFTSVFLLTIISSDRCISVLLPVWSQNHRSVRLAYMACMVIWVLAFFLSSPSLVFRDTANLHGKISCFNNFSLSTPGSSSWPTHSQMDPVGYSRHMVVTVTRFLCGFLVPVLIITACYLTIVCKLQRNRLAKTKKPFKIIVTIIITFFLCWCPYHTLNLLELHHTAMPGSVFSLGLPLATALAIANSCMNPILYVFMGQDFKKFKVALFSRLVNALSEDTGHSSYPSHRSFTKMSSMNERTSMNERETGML
Nature of the data set: Competitive radioligand binding with ^125I-chemerin-9, membranes of HEK293a cells stably expressing huCMKLR1 and Gα16. The note with it: unlabeled compound; radioligand ^125I-chemerin-9, 5 µg membrane, 1 h 37 °C; three independent experiments, mean ± SD; read-out: competition binding IC50 w/o ^natGa. Here is the method: (§1) For in vitro analysis, HEK293a stably transfected with huCMKLR1 and Gα16 were used. For the in vivo mouse model, the human breast cancer cell line DU4475 with endogenous CMKLR1 expression and the target-negative human lung carcinoma cell line A549 were used. All cell lines were obtained from ATCC/LGC Standards (Wesel, Germany) and were cultured in RPMI1640 medium containing 10% fetal bovine serum (both from Biochrom, Berlin, Germany) and, in case of transfected cells, selection agents G418 (Biochrom, Berlin, Germany) and zeocin (Invitrogen, Carlsbad, USA).
Competitive binding studies were performed with cell membrane preparations. […] […].
(§2) All statistical analyses were performed using GraphPad Prism 5.04. EC50/IC50 values were determined by nonlinear sigmoidal curve fitting with variable slope setting, and normalized response for competitive binding results. Multiple group comparisons were done by a two-way ANOVA and Bonferroni post hoc test. All presented data are based on independent experiments. Normalizations and statistics are further defined in each figure legend.

The target in data set [3] is T1, huCMKLR1. Nature of the data set: Calcium mobilization assay. In kind it is cell-based. The note with it: HEK293a huCMKLR1 Gα16 cells, Fluo-4 AM; three independent experiments, mean ± SD; read-out: Ca^2+ assay EC50. Here is the method: as §1
Optical ViewPlate 96-well microplates (PerkinElmer, Waltham, USA) were coated with poly-D-lysine (10 µg/mL, 50 µL/well) for 30 minutes at 37 °C, washed with PBS and air dried before seeding 40,000 HEK293a huCMKLR1 Gα16 cells per well. The next day, cells were starved with serum-free medium for 30 minutes and incubated with loading medium consisting of serum-free medium with 2.5 mM probenicid (Sigma-Aldrich, St. Louis, USA) and 2 µM Fluo-4 AM (Thermo Fisher Scientific, Waltham, USA). After a loading time of 45 minutes, cells were washed with 100 μL C1 buffer (130 mM NaCl, 5 mM KCl, 10 mM 4-(2-hydroxyethyl)-1-piperazineethanesulfonic acid [HEPES], 2 mM CaCl2, 10 mM glucose) followed by 20 minutes of incubation in the dark. After another washing and incubation cycle, the cell plate was placed into the CellLux Calcium Imaging System (PerkinElmer, Waltham, USA) and the assay was performed automatically according to the following protocol. After a baseline measurement for 30 seconds, the ligands (prepared in C1 buffer with 0.5% BSA in double concentration and pipetted in a U-bottom plate) were added on top of the cells and the fluorescence intensity was recorded for further 60 seconds. Obtained raw data were analyzed using AssayPro (PerkinElmer, Waltham, USA). After spatial uniformity correction, maximum response values (F) were normalized to baseline values (F0) of each well using the following equation:
response = ΔF/F0 = (F - F0)/F0.
as §2
In general terms: Calcium assays in cells follow changes in intracellular calcium, usually with a dye or a luminescent sensor.

The next data set in a line: in vivo. The note with it: female, athymic NMRI-Foxn1^nu/Foxn1^nu, mouse, iv, 1 MBq, total radioactivity. The text has this: (§3) For in vivo experiments, at least 8-week-old female athymic NMRI-Foxn1^nu /Foxn1^nu mice (Janvier Labs, Saint-Berthevin, France) were used. Animal care followed institutional guidelines and all experiments were approved by local animal research authorities. For the generation of tumor xenografts, 5 x 10^6 cells of both DU4475 and A549 cells were inoculated subcutaneously into the right and left shoulder, respectively (1:1 phosphate-buffered saline [PBS]/Matrigel Basement Membrane Matrix High Concentration, Corning, Corning, USA). Part of the animals received SW13 lung cancer cells as a CMKLR1-negative control tumor. For the analysis of biodistribution, only data of […] and A549 xenograft tumors are used. Tumors were allowed to grow for two to four weeks (tumor volume > 100 mm^3) after cell inoculation.
(§4) Radiolabeling of peptide-DOTA conjugates was carried out manually using ^177Lu from ITG Isotope Technologies Garching GmbH (Garching, Germany). A total of 50 µL (stock solution of peptide at 1 µg/µL in 10% DMSO in water) was added to 200 µL of acetate buffer (sodium acetate/acetic acid buffer, 0.4 M, pH 5.0) and 120 µL of gentisic solution prepared by dissolving 50 mg of gentisic acid in 1 mL of acetate buffer. The resulting mixture was then added to 35 µL of ^177Lu (1 GBq in aqueous 0.04 M HCl) and the reaction mixture was heated at 96 °C for 30 minutes followed by cooling for 10 minutes at room temperature. The product was then diluted with 5 mL of saline and used directly for animal experiments.
(§5) Tumor-bearing mice were injected with approximately 10 MBq of ^68Ga-labeled DOTA-peptide or 1 MBq of ^177Lu-labeled DOTA-peptide to the tail vein via a catheter. […] Tumor, blood, stomach, pancreas, small intestine, colon, liver, spleen, kidney, heart, lung, muscle and femur samples were weighed and uptake of radioactivity was measured by a gamma counter. To determine the effect of unlabeled ligand on the tumor uptake, 200 nmol CG34 peptide (100-fold excess) was co-injected.

Data set [4] relates to DU4475/A549 xenograft model. The data set can be described thus: in vivo. The note with it: mouse.
From the text: as §3, §4, §5

This note sets out measurements from paper PMC6771245, “CMKLR1-targeting peptide tracers for PET/MR imaging of breast cancer” (Theranostics, 2019).

“And” between values parts separate entries of the source, which are not always exact repeats. Equal entries are not always repeated. *1 amine or outer side, *2 acyl side, *3 side chain or, on linkers, in order; H or OH if unused. Where a SMILES comes first, the peptide text is derived from it. [ ]: non-standard residue; d: D form. The star is where a group is joined. X1 = O=C(O)CN1CCN(CC(=O)O)CCN(CC(=O)NCCCOCCOCCOCCCN*)CCN(CC(=O)O)CC1; DOTA = O=C(O)CN1CCN(CC(=O)O)CCN(CC(=O)*)CCN(CC(=O)O)CC1; NH(CH2)9CO = O=C(CCCCCCCCCN[*:1])[*:2]; Hyp = O=C(O)[C@@H]1C[C@@H](O)CN1; Tic = O=C(O)[C@@H]1Cc2ccccc2CN1; Cha = N[C@@H](CC1CCCCC1)C(=O)O; Cit = NC(=O)NCCC[C@H](N)C(=O)O; Suc = O=C(CCC(=O)[*:2])[*:1]; Octanoyl = CCCCCCCC(=O)*; Ahx = NCCCCCC(=O)O

Turning to `C[C@@H](NC(=O)[C@H](Cc1ccccc1)NC(=O)[C@H](CCCNC(N)=O)NC(=O)CNC(=O)[C@@H]1C[C@@H](O)CN1C(=O)[C@H](CC1CCCCC1)NC(=O)[C@H](Cc1ccc(O)cc1)NC(=O)CCCCCCCCCNC(=O)CN1CCN(CC(=O)O)CCN(CC(=O)O)CCN(CC(=O)O)CC1)C(=O)N1Cc2ccccc2C[C@H]1C(=O)N[C@@H](CO)C(=O)O` [DOTA-ADX-CG34] ({DOTA}-[NH(CH2)9CO]Y[Cha][Hyp]G[Cit]F[dA][Tic]S-OH), in data set [1], the log distribution coefficient (logD) (in general, the decadic logarithm of the distribution of all forms, ionised or not, between an organic phase and buffer at a given pH) is 1.35 ± 0.31. The IC50 on huCMKLR1 [2] amounted to 0.65 ± 0.15 nM. Moreover, at huCMKLR1 [3], the concentration for a half-maximal effect (EC50) – broadly, the concentration needed to bring the measured effect to its halfway point – turned out to be 0.65 ± 0.1 nM.

As for `C[C@@H](NC(=O)[C@H](Cc1ccccc1)NC(=O)[C@H](CCCNC(N)=O)NC(=O)CNC(=O)[C@@H]1C[C@@H](O)CN1C(=O)[C@H](CC1CCCCC1)NC(=O)[C@H](Cc1ccc(O)cc1)NC(=O)CCCCCNC(=O)CN1CCN(CC(=O)O)CCN(CC(=O)O)CCN(CC(=O)O)CC1)C(=O)N1Cc2ccccc2C[C@H]1C(=O)N[C@@H](CO)C(=O)O` [DOTA-AHX-CG34] ({DOTA-Ahx}-Y[Cha][Hyp]G[Cit]F[dA][Tic]S-OH), the logD in data set [1] was -0.96 ± 0.2. Also, the IC50 on huCMKLR1 [2] was 1.05 ± 0.81 nM. The concentration for a half-maximal effect (EC50) at huCMKLR1 [3] is 0.79 ± 0.28 nM.

`CSCC[C@H](NC(=O)CNC(=O)[C@@H]1CCCN1C(=O)[C@H](CC1CCCCC1)NC(=O)[C@H](Cc1ccc(O)cc1)NC(=O)CCCCCNC(=O)CN1CCN(CC(=O)O)CCN(CC(=O)O)CCN(CC(=O)O)CC1)C(=O)N[C@@H](Cc1ccc(O)cc1)C(=O)N[C@@H](C)C(=O)N[C@@H](Cc1ccccc1)C(=O)N[C@H](Cc1ccccc1)C(=O)O` [DOTA-AHX-CG36] ({DOTA-Ahx}-Y[Cha]PGMYAF[dF]-OH): the logD in data set [1] was found to be 2.27 ± 0.47. Further, the IC50 on huCMKLR1 [2] turned out to be 0.13 ± 0.08 nM. In addition, the 50% effective concentration (EC50) on huCMKLR1 [3] was 1.53 nM.

In turn, `CCCCCCCC(=O)NCCCC[C@H](NC(=O)CN1CCN(CC(=O)O)CCN(CC(=O)O)CCN(CC(=O)O)CC1)C(=O)N[C@@H](Cc1ccc(O)cc1)C(=O)N[C@@H](CC1CCCCC1)C(=O)N1C[C@H](O)C[C@H]1C(=O)NCC(=O)N[C@@H](CCCNC(N)=O)C(=O)N[C@@H](Cc1ccccc1)C(=O)N[C@H](C)C(=O)N1Cc2ccccc2C[C@H]1C(=O)N[C@@H](CO)C(=O)O` [DOTA-KCap-CG34] ({DOTA}-K(Octanoyl)Y[Cha][Hyp]G[Cit]F[dA][Tic]S-OH) showed a pH-dependent lipophilicity (logD) in data set [1] of 1.29 ± 0.68. Besides, at huCMKLR1 [2], the IC50 came out at 0.44 ± 0.16 nM. The EC50 at huCMKLR1 [3] stood at 1.34 ± 0.14 nM.

For `C[C@@H](NC(=O)[C@H](Cc1ccccc1)NC(=O)[C@H](CCCNC(N)=O)NC(=O)CNC(=O)[C@@H]1C[C@@H](O)CN1C(=O)[C@H](CC1CCCCC1)NC(=O)[C@H](Cc1ccc(O)cc1)NC(=O)CCC(=O)NCCCOCCOCCOCCCNC(=O)CN1CCN(CC(=O)O)CCN(CC(=O)O)CCN(CC(=O)O)CC1)C(=O)N1Cc2ccccc2C[C@H]1C(=O)N[C@@H](CO)C(=O)O` [DOTA-TTDS-CG34] ({X1-Suc}-Y[Cha][Hyp]G[Cit]F[dA][Tic]S-OH), in data set [1], the log distribution coefficient (logD) was -1.01 ± 0.39. For the same compound, the IC50 at huCMKLR1 [2] is 0.66 nM and ~0.6 nM.

As to `C[C@@H](NC(=O)[C@H](Cc1ccccc1)NC(=O)[C@H](CCCNC(N)=O)NC(=O)CNC(=O)[C@@H]1C[C@@H](O)CN1C(=O)[C@H](CC1CCCCC1)NC(=O)[C@H](Cc1ccc(O)cc1)NC(=O)CCCCCNC(=O)CN1CCN(CC(=O)O)CCN(CC(=O)O)CCN(CC(=O)O)CC1)C(=O)N1Cc2ccccc2C[C@H]1C(=O)N[C@@H](CO)C(=O)O` [[^177Lu]Lu-DOTA-AHX-CG34, metal not drawn] ({DOTA-Ahx}-Y[Cha][Hyp]G[Cit]F[dA][Tic]S-OH), the tissue uptake (usually the percentage of the injected dose found per gram of tissue) at 1 h was found to be 2.3 %ID/g in “in vivo” (A549 tumor uptake); 3.3 %ID/g in the data set “in vivo” (DU4475 tumor uptake); 4.7 %ID/g in “in vivo” (kidneys uptake); 5.6 %ID/g in the data set “in vivo” (lung uptake); 5.8 %ID/g in “in vivo” (spleen uptake). The tissue uptake at 24 h was 0.4 %ID/g in the data set “in vivo” (A549 tumor uptake), 2.1 %ID/g in the data set “in vivo” (DU4475 tumor uptake), 1 %ID/g in the data set “in vivo” (kidneys uptake) and 1.7 %ID/g in “in vivo” (spleen uptake). Moreover, the “DU4475 uptake after 24 hours as % of the 1 h-value” in data set [4] was “approx. 64%”. Moreover, the “decrease of DU4475 tumor signal from one to 24 hours p.i.” value in data set [4] was “approximately 36%”. Also, in data set [4], the “higher uptake in DU4475 than A549” value was determined as 1.4 fold.
